T1: human APJ receptor (human, UniProt P35414 1-380)
T1 sequence (looked up): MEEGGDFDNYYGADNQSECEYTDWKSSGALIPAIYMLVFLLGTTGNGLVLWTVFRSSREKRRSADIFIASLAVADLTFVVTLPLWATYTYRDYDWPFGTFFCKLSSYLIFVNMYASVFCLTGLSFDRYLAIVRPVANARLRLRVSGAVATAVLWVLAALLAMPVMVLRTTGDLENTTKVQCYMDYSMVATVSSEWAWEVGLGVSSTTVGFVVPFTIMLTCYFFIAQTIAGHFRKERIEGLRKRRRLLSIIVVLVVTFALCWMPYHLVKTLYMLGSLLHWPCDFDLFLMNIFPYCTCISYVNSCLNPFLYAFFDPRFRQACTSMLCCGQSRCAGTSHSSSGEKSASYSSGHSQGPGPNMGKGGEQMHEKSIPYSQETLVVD

T2: rat APJ receptor (rat, UniProt Q9JHG3 1-377)
T2 sequence (looked up): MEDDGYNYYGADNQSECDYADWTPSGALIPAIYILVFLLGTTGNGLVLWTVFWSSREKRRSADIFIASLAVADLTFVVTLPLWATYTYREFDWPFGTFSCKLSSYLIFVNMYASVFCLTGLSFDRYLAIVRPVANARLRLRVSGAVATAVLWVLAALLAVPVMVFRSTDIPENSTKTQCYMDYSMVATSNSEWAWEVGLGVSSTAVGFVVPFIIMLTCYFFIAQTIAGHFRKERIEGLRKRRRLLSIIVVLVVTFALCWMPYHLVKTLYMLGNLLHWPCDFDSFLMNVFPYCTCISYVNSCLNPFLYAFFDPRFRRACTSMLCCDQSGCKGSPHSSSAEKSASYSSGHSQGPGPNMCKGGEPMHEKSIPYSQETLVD

B1: Apelin polypeptide SEQ ID NO: 328 (peptide)
peptide: Tridecanoyl-[γGlu][AEEA][AEEA][hArg][dR]Q[Nle]P[dR][NMeL]SAKG[Oic][Phe(4-I)]P[dBip]-OH
SMILES: CCCCCCCCCCCCC(=O)N[C@@H](CCC(=O)NCCOCCOCC(=O)NCCOCCOCC(=O)N[C@@H](CCCCNC(=N)N)C(=O)N[C@H](CCCNC(=N)N)C(=O)N[C@@H](CCC(N)=O)C(=O)N[C@@H](CCCC)C(=O)N1CCC[C@H]1C(=O)N[C@H](CCCNC(=N)N)C(=O)N(C)[C@@H](CC(C)C)C(=O)N[C@@H](CO)C(=O)N[C@@H](C)C(=O)N[C@@H](CCCCN)C(=O)NCC(=O)N1[C@H](C(=O)N[C@@H](Cc2ccc(I)cc2)C(=O)N2CCC[C@H]2C(=O)N[C@H](Cc2ccc(-c3ccccc3)cc2)C(=O)O)C[C@@H]2CCCC[C@@H]21)C(=O)O
B2: Apelin polypeptide SEQ ID NO: 316 (peptide)
peptide: Tridecanoyl-[γGlu][AEEA][AEEA][hArg][dR]Q[Nle]P[dR][NMeL]SHKG[Oic][Phe(4-I)]P[dBip]-OH
SMILES: CCCCCCCCCCCCC(=O)N[C@@H](CCC(=O)NCCOCCOCC(=O)NCCOCCOCC(=O)N[C@@H](CCCCNC(=N)N)C(=O)N[C@H](CCCNC(=N)N)C(=O)N[C@@H](CCC(N)=O)C(=O)N[C@@H](CCCC)C(=O)N1CCC[C@H]1C(=O)N[C@H](CCCNC(=N)N)C(=O)N(C)[C@@H](CC(C)C)C(=O)N[C@@H](CO)C(=O)N[C@@H](Cc1c[nH]cn1)C(=O)N[C@@H](CCCCN)C(=O)NCC(=O)N1[C@H](C(=O)N[C@@H](Cc2ccc(I)cc2)C(=O)N2CCC[C@H]2C(=O)N[C@H](Cc2ccc(-c3ccccc3)cc2)C(=O)O)C[C@@H]2CCCC[C@@H]21)C(=O)O
B3: Apelin polypeptide SEQ ID NO: 338 (peptide)
peptide: Tridecanoyl-[γGlu][AEEA][AEEA][Nle]QRP[hArg][Cha]SHKG[Oic][Nle]P[Phe(4-Cl)]-OH
SMILES: CCCCCCCCCCCCC(=O)N[C@@H](CCC(=O)NCCOCCOCC(=O)NCCOCCOCC(=O)N[C@@H](CCCC)C(=O)N[C@@H](CCC(N)=O)C(=O)N[C@@H](CCCNC(=N)N)C(=O)N1CCC[C@H]1C(=O)N[C@@H](CCCCNC(=N)N)C(=O)N[C@@H](CC1CCCCC1)C(=O)N[C@@H](CO)C(=O)N[C@@H](Cc1c[nH]cn1)C(=O)N[C@@H](CCCCN)C(=O)NCC(=O)N1[C@H](C(=O)N[C@@H](CCCC)C(=O)N2CCC[C@H]2C(=O)N[C@@H](Cc2ccc(Cl)cc2)C(=O)O)C[C@@H]2CCCC[C@@H]21)C(=O)O
B4: Apelin polypeptide SEQ ID NO: 347 (peptide)
peptide: Tridecanoyl-[γGlu][AEEA][AEEA][Nle]QRP[hArg][Cha]AAKG[Oic][Nle]P[Phe(4-Cl)]-OH
SMILES: CCCCCCCCCCCCC(=O)N[C@@H](CCC(=O)NCCOCCOCC(=O)NCCOCCOCC(=O)N[C@@H](CCCC)C(=O)N[C@@H](CCC(N)=O)C(=O)N[C@@H](CCCNC(=N)N)C(=O)N1CCC[C@H]1C(=O)N[C@@H](CCCCNC(=N)N)C(=O)N[C@@H](CC1CCCCC1)C(=O)N[C@@H](C)C(=O)N[C@@H](C)C(=O)N[C@@H](CCCCN)C(=O)NCC(=O)N1[C@H](C(=O)N[C@@H](CCCC)C(=O)N2CCC[C@H]2C(=O)N[C@@H](Cc2ccc(Cl)cc2)C(=O)O)C[C@@H]2CCCC[C@@H]21)C(=O)O
B5: Apelin polypeptide SEQ ID NO: 320 (peptide)
peptide: Tridecanoyl-[γGlu][AEEA][AEEA][Nle][dR]Q[hArg]P[dR][NMeL]AHKG[Oic][Phe(4-I)]P[dBip]-OH
SMILES: CCCCCCCCCCCCC(=O)N[C@@H](CCC(=O)NCCOCCOCC(=O)NCCOCCOCC(=O)N[C@@H](CCCC)C(=O)N[C@H](CCCNC(=N)N)C(=O)N[C@@H](CCC(N)=O)C(=O)N[C@@H](CCCCNC(=N)N)C(=O)N1CCC[C@H]1C(=O)N[C@H](CCCNC(=N)N)C(=O)N(C)[C@@H](CC(C)C)C(=O)N[C@@H](C)C(=O)N[C@@H](Cc1c[nH]cn1)C(=O)N[C@@H](CCCCN)C(=O)NCC(=O)N1[C@H](C(=O)N[C@@H](Cc2ccc(I)cc2)C(=O)N2CCC[C@H]2C(=O)N[C@H](Cc2ccc(-c3ccccc3)cc2)C(=O)O)C[C@@H]2CCCC[C@@H]21)C(=O)O
B6: Apelin polypeptide SEQ ID NO: 342 (peptide)
peptide: Tridecanoyl-[γGlu][AEEA][AEEA][Nle]QRP[hArg][Cha]SAKG[Oic][Nle]P[Phe(4-Cl)]-OH
SMILES: CCCCCCCCCCCCC(=O)N[C@@H](CCC(=O)NCCOCCOCC(=O)NCCOCCOCC(=O)N[C@@H](CCCC)C(=O)N[C@@H](CCC(N)=O)C(=O)N[C@@H](CCCNC(=N)N)C(=O)N1CCC[C@H]1C(=O)N[C@@H](CCCCNC(=N)N)C(=O)N[C@@H](CC1CCCCC1)C(=O)N[C@@H](CO)C(=O)N[C@@H](C)C(=O)N[C@@H](CCCCN)C(=O)NCC(=O)N1[C@H](C(=O)N[C@@H](CCCC)C(=O)N2CCC[C@H]2C(=O)N[C@@H](Cc2ccc(Cl)cc2)C(=O)O)C[C@@H]2CCCC[C@@H]21)C(=O)O
B7: Apelin polypeptide SEQ ID NO: 335 (peptide)
peptide: Tridecanoyl-[γGlu][AEEA][AEEA]RQRP[Nle][Cha]SHKG[Oic][Nle]P[Phe(4-Cl)]-OH
SMILES: CCCCCCCCCCCCC(=O)N[C@@H](CCC(=O)NCCOCCOCC(=O)NCCOCCOCC(=O)N[C@@H](CCCNC(=N)N)C(=O)N[C@@H](CCC(N)=O)C(=O)N[C@@H](CCCNC(=N)N)C(=O)N1CCC[C@H]1C(=O)N[C@@H](CCCC)C(=O)N[C@@H](CC1CCCCC1)C(=O)N[C@@H](CO)C(=O)N[C@@H](Cc1c[nH]cn1)C(=O)N[C@@H](CCCCN)C(=O)NCC(=O)N1[C@H](C(=O)N[C@@H](CCCC)C(=O)N2CCC[C@H]2C(=O)N[C@@H](Cc2ccc(Cl)cc2)C(=O)O)C[C@@H]2CCCC[C@@H]21)C(=O)O
B8: Apelin polypeptide SEQ ID NO: 332 (peptide)
peptide: Tridecanoyl-[γGlu][AEEA][AEEA][Nle][dR]Q[hArg]P[dR][NMeL]AAKG[Oic][Phe(4-I)]P[dBip]-OH
SMILES: CCCCCCCCCCCCC(=O)N[C@@H](CCC(=O)NCCOCCOCC(=O)NCCOCCOCC(=O)N[C@@H](CCCC)C(=O)N[C@H](CCCNC(=N)N)C(=O)N[C@@H](CCC(N)=O)C(=O)N[C@@H](CCCCNC(=N)N)C(=O)N1CCC[C@H]1C(=O)N[C@H](CCCNC(=N)N)C(=O)N(C)[C@@H](CC(C)C)C(=O)N[C@@H](C)C(=O)N[C@@H](C)C(=O)N[C@@H](CCCCN)C(=O)NCC(=O)N1[C@H](C(=O)N[C@@H](Cc2ccc(I)cc2)C(=O)N2CCC[C@H]2C(=O)N[C@H](Cc2ccc(-c3ccccc3)cc2)C(=O)O)C[C@@H]2CCCC[C@@H]21)C(=O)O

Starred links: 1 amine or outer side, 2 acyl side, 3 side chain; linkers in the order of their positions; H or OH if unused. Non-standard residues stand in square brackets, D forms with d. *: point of attachment. dBip = N[C@H](Cc1ccc(-c2ccccc2)cc1)C(=O)O; Oic = O=C(O)[C@@H]1C[C@@H]2CCCC[C@@H]2N1; Phe(4-Cl) = N[C@@H](Cc1ccc(Cl)cc1)C(=O)O; Phe(4-I) = N[C@@H](Cc1ccc(I)cc1)C(=O)O; γGlu = O=C(O)[C@H](CCC(=O)[*:2])N[*:1]; Tridecanoyl = CCCCCCCCCCCCC(=O)*; hArg = N=C(N)NCCCC[C@H](N)C(=O)O; Cha = N[C@@H](CC1CCCCC1)C(=O)O; NMeL = CN[C@@H](CC(C)C)C(=O)O; Nle = CCCC[C@H](N)C(=O)O; AEEA = NCCOCCOCC(=O)O

From US10941182 (Amgen, dated 2021) come the findings set out here.

In the first assay the target is T1, human APJ receptor. Kind of assay: cell-based or functional assay.
In the case of B1, the “EC50 Human APJ Receptor (GTPγS assay)” value stood at 9.17 nM.
Still for that read-out and setting: as for B2, the figure is 6 nM; as for B3, 0.56 nM; as for B4, 1.89 nM.
Same read-out and setting: the same measure for B5: 17.9 nM.
As to B6, the “EC50 Human APJ Receptor (GTPγS assay)” value came to 0.803 nM.
As for B7, the “EC50 Human APJ Receptor (GTPγS assay)” value worked out at 0.315 nM.
Still for that read-out and setting: as for B8, the figure is 40 nM.

The next assay addresses T2, rat APJ receptor. Kind of assay: cell-based or functional assay.
B1: the “EC50 Rat APJ Receptor (GTPγS assay)” value is 7.7 nM.
On the same count and under the same terms, as for B2, the figure is 9.29 nM; as for B3, 0.766 nM; as for B4, 2.13 nM.
Still for that read-out and setting: as for B5, the figure is 37.7 nM; as for B6, 0.684 nM.
On the same count and under the same terms, the same measure for B7: 0.964 nM; for B8: 50.5 nM.
